The series deals with DNA polymerase beta (WT pol β) (UniProt P06746 1-335). In words: EMSA.

B1: 45AG 1-nt gapped DNA (dsDNA)
DNA 1: GCCTCGCAGCCGTCCAACCAAC
DNA 2: CAACCTCGATCCAATGCCGTCC
DNA 3: GGACGGCATTGGATCGAGGTTGAGTTGGTTGGACGGCTGCGAGGC
modifications: 5'-phosphate on downstream oligo and template
Molecule B1 registered a Kd of 78 nM.

These data come from paper PMC2943728.
